The source of these data is article PMC4350099.

This experiment concerns the target 14-3-3ζ (UniProt P63104). The experiment is described as follows: GST pull-down from co-transfected cells. Conditions: reference: wild type.

On to “Notch4 (Notch4-ICD; Notch4-ΔhN4) ICD (from UniProt Q99466) 4XA (S1495/1847/1865/1917A)”, for which the “binding against the reference” value (sites S1495,S1847,S1865,S1917) was “lost”.
Regarding “Notch4 (Notch4-ICD; Notch4-ΔhN4) ICD (from UniProt Q99466) S1495A”, the “binding against the reference” value (sites S1495) is “weaker”.
As for “Notch4 (Notch4-ICD; Notch4-ΔhN4) ICD (from UniProt Q99466) S1847A”, the “binding against the reference” value (sites S1847) is “weaker”.
For the substance “Notch4 (Notch4-ICD; Notch4-ΔhN4) ICD (from UniProt Q99466) S1865A”, the “binding against the reference” value (sites S1865) is on record as “weaker”.
On to “Notch4 (Notch4-ICD; Notch4-ΔhN4) ICD (from UniProt Q99466) S1917A”, for which, under “sites S1917”, the “binding against the reference” value was “weaker”.
